Substrate in this data set: O=P(O)(O)O[C@H]1O[C@H](CO)[C@H](O)[C@H](O)[C@H]1O
The experiment in a line: purified protein, by the assay type.

Setting [1] is: other: SUMO-tagged YidA as coupling enzyme, pH 8.0.

“And” between values parts separate entries of the source, which are not always exact repeats. Identical values can stand only once.

B1: Duarte GalT (galactose-1-phosphate uridylyltransferase, Duarte variant) (Homo sapiens; N314D) (protein)
chain: MSRSGTDPQQRQQASEADAAAATFRANDHQHIRYNPLQDEWVLVSAHRMKRPWQGQVEPQLLKTVPRHDPLNPLCPGAIRANGEVNPQYDSTFLFDNDFPALQPDAPSPGPSDHPLFQAKSARGVCKVMCFHPWSDVTLPLMSVPEIRAVVDAWASVTEELGAQYPWVQIFENKGAMMGCSNPHPHCQVWASSFLPDIAQREERSQQAYKSQHGEPLLMEYSRQELLRKERLVLTSEHWLVLVPFWATWPYQTLLLPRRHVRRLPELTPAERDDLASIMKKLLTKYDNLFETSFPYSMGWHGAPTGSEAGANWDHWQLHAHYYPPLLRSATVRKFMVGYEMLAQAQRDLTPEQAAERLRALPEVHYHLGQKDRETATIA
For orientation: Km means the substrate concentration at which the rate is half of its maximum. By kcat is commonly meant the maximal rate divided by the concentration of active sites. As for B1, the Km under setting [1] was 890 ± 30 µM; the Km (other: mean ± SD of three independent trials, pH 8.0) was 660 ± 20 µM and 530 ± 40 µM; the Km (other: single trials, ± curve-fit error, pH 8, 37° C., 0.8 mM UDP-glucose, 37.0 °C) was 550 ± 90 µM and 480 ± 30 µM; the Km (other: single trials, ± curve-fit error, pH 8.0, 37° C., 1 mM UDP-glucose, 37.0 °C) is 670 ± 180 µM and 630 ± 140 µM and 670 ± 150 µM. Also, under setting [1], the turnover number (kcat) stood at 14.8 ± 0.867 s⁻¹.

Source of the values: patent US20240247301A1, “DIAGNOSTIC ASSAY FOR CLASSIC INBORN GALACTOSEMIA” (Ohio State Innovation Foundation, priority 2022, published 2024).
